Literature values in article PMC7563123.

How the values were obtained:
[1] = biological target: Aβ1–42 Aβ1-42 (Homo sapiens) (UniProt P05067); assay: ligand binding assay
[2] = biological target: Aβ1–40 Aβ1-40 (Homo sapiens) (UniProt P05067); assay: ligand binding assay
Aβ1–40 Aβ1-40 (Homo sapiens), sequence (P05067 1-40): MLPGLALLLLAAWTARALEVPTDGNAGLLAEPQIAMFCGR

17β-HSD10, sequence (Q99714 2-261): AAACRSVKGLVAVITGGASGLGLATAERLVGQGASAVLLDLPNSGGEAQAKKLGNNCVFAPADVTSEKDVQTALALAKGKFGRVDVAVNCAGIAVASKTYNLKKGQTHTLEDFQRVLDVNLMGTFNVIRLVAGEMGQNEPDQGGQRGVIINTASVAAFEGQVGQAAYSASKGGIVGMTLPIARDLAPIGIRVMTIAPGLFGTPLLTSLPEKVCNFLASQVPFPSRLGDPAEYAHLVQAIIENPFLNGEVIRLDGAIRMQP
Aβ1–42 Aβ1-42 (Homo sapiens), sequence (P05067 1-42): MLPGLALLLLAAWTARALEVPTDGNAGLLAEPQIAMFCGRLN

Kd [1]: 55.8 nM
Kd [2]: 38.4 nM
Substance: 17β-HSD10 (from UniProt Q99714)
